Experimental data published in patent US20190309079A1 (Regeneron, published 2019).
Where two headings read alike, the source gives them in different places.

T1: LEPR-A409E (signaling-defective mutant) on HEK293 reporter cells (human, UniProt P48357 22-1165)
T1 sequence: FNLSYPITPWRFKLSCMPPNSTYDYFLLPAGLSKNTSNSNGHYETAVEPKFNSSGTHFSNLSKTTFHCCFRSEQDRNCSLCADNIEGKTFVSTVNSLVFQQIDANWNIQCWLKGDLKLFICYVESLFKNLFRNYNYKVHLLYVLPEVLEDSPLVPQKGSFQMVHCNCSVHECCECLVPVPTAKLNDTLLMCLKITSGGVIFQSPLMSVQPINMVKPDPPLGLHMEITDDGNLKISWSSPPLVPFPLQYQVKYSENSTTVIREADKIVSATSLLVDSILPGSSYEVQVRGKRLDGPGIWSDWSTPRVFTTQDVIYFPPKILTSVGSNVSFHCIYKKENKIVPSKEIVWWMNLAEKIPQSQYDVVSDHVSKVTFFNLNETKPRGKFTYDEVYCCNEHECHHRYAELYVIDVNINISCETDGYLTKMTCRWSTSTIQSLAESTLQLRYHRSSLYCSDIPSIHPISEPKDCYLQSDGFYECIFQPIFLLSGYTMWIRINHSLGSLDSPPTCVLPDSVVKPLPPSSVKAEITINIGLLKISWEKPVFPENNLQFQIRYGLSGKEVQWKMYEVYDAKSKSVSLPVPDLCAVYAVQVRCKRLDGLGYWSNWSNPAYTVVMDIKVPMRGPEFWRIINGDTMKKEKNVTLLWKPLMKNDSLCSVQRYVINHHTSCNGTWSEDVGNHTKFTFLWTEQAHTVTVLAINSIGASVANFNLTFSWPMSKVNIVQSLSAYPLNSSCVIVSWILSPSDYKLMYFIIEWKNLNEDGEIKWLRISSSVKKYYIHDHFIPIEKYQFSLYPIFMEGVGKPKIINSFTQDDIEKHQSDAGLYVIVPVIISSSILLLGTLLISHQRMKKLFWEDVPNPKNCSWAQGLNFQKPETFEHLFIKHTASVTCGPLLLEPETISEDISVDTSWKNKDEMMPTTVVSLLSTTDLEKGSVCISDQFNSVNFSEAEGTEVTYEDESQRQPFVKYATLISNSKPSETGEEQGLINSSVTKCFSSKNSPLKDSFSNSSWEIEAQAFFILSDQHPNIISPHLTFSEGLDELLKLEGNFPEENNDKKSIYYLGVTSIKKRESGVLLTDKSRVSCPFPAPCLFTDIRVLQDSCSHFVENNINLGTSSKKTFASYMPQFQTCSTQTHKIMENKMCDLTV

T2: LEPR-P316T (signaling-impaired mutant) on HEK293 reporter cells (human, UniProt P48357 22-1165)
T2 sequence: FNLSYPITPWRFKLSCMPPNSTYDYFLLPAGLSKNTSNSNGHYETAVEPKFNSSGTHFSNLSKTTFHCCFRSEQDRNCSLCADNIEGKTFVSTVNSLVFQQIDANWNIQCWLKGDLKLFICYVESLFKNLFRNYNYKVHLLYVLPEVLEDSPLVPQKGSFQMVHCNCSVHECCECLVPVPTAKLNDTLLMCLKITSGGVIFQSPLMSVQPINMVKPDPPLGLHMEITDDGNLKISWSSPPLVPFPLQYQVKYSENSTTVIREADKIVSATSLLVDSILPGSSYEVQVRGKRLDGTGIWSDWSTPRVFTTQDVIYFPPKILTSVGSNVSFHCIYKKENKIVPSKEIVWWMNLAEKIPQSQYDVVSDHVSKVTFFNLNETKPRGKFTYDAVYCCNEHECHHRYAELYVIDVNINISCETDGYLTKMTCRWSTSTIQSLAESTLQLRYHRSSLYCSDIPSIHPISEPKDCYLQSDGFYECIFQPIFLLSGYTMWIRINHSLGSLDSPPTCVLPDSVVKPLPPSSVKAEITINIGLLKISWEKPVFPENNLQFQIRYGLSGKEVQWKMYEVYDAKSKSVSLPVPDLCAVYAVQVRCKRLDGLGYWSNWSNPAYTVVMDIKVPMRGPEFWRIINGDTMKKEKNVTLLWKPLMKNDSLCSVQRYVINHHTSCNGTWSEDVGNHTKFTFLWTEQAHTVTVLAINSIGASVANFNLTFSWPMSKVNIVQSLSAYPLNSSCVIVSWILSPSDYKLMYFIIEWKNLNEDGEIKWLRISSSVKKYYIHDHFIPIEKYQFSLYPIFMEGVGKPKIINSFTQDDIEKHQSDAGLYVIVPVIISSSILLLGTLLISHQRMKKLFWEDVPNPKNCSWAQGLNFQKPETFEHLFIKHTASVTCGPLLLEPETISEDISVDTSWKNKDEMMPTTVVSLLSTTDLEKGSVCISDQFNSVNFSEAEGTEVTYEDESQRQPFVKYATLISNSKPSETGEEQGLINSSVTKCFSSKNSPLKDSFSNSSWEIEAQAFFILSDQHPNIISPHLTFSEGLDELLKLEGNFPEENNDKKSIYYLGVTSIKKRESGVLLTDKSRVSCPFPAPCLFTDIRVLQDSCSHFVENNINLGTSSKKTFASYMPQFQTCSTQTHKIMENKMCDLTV


Tests used:
Test in all cases: cell-based or functional assay
[1] = target: T1, LEPR-A409E (signaling-defective mutant) …
[2] = target: T2, LEPR-P316T (signaling-impaired mutant) …
[3] = target: T2, LEPR-P316T (signaling-impaired mutant) …; remark: listed apart in the source

EC50 (read off the curve), pSTAT3 Y705/STAT3 densitometry [1]	EC50 (read off the curve), pSTAT3 Y705/STAT3 densitometry [2]	EC50 (read off the curve), pSTAT3 Y705/STAT3 densitometry [3]	Binder
~6e-10 M	~3e-10 M		H4H16679P2 (antibody, V domains shown) VH: QVQLVESGGGVVQPGRSLRLSCTASGFTFSSYAMYWVRQAPGKGLEWVSVIYYDGSYKYYADSVKGRFTISRDNSKNTLYLQMDSLRAEDTAVYYCASYNWNYWYFDFWGRGTLVTVSS VL: not shown
		~4e-10 M	H4H16650P2 (antibody, V domains shown) VH: QVQLVESGGGVVQPGKSLRLSCVASGFTFSSDAMYWVRQAPGKGLEWVAVIYYDGNYQYYEDSVKGRFTISRDNSQNTLDLQMNSLRVDDTAVYFCARLNWDYWYLDLWGRGTLVTVSS VL: not shown
